Drawing on patent US20240174716A1 (VACINO BIOTECH, published 2024), this text covers Kd for 29 molecules.

To fix the notation:
B1: PT-066 (peptide)
peptide: DITVLCKEYN
notes: 10-mer; also called transporter peptide
B2: PT-001 (peptide)
peptide: DISVLMKEYD
notes: as for B1
B3: PT-011 (peptide)
peptide: DILVLMKEYD
notes: as for B1
B4: PT-022 (peptide)
peptide: DISLLMKEYD
notes: as for B1
B5: PT-030 (peptide)
peptide: DISVLQKEYD
notes: as for B1
B6: PT-056 (peptide)
peptide: DISVLMKESD
notes: as for B1
B7: PT-051 (peptide)
peptide: DISVLSKEYD
notes: as for B1
B8: PT-063 (peptide)
peptide: DISELMKEYD
notes: as for B1
B9: PT-031 (peptide)
peptide: DISVLMKEYN
notes: as for B1
B10: PT-034 (peptide)
peptide: DISVLMKEYQ
notes: as for B1
B11: PT-064 (peptide)
peptide: DISVLLKEYD
notes: as for B1
B12: PT-008 (peptide)
peptide: DIHVLMKEYD
notes: as for B1
B13: PT-029 (peptide)
peptide: DISVLEKEYD
notes: as for B1
B14: PT-014 (peptide)
peptide: DIPVLMKEYD
notes: as for B1
B15: PT-023 (peptide)
peptide: DISVIMKEYD
notes: as for B1
B16: PT-033 (peptide)
peptide: DISVLMKEYE
notes: as for B1
B17: PT-017 (peptide)
peptide: DITVLMKEYD
notes: as for B1
B18: PT-067 (peptide)
peptide: DIHVLDKEYD
notes: as for B1
B19: PT-054 (peptide)
peptide: DISVLMKDYD
notes: as for B1
B20: PT-055 (peptide)
peptide: DISVLMKEFD
notes: as for B1
B21: PT-065 (peptide)
peptide: DISVLMKHYD
notes: as for B1
B22: PT-024 (peptide)
peptide: DISVVMKEYD
notes: as for B1
B23: PT-004 (peptide)
peptide: DIDVLMKEYD
notes: as for B1
B24: PT-027 (peptide)
peptide: DISVLCKEYD
notes: as for B1
B25: PT-025 (peptide)
peptide: DISVLDKEYD
notes: as for B1
B26: PT-026 (peptide)
peptide: DISVLNKEYD
notes: as for B1
B27: PT-062 (peptide)
peptide: NISVLMKEYD
notes: as for B1
B28: PT-028 (peptide)
peptide: DISVLKKEYD
notes: as for B1
B29: PT-057 (peptide)
peptide: DISVLMKETD
notes: as for B1

A word on the Kd: it is the free concentration of one partner at which half of the binding sites on the other are occupied at equilibrium, for simple one-to-one binding. A high value points to lower affinity.

T1 sequence (P02786 89-760 limits assumed): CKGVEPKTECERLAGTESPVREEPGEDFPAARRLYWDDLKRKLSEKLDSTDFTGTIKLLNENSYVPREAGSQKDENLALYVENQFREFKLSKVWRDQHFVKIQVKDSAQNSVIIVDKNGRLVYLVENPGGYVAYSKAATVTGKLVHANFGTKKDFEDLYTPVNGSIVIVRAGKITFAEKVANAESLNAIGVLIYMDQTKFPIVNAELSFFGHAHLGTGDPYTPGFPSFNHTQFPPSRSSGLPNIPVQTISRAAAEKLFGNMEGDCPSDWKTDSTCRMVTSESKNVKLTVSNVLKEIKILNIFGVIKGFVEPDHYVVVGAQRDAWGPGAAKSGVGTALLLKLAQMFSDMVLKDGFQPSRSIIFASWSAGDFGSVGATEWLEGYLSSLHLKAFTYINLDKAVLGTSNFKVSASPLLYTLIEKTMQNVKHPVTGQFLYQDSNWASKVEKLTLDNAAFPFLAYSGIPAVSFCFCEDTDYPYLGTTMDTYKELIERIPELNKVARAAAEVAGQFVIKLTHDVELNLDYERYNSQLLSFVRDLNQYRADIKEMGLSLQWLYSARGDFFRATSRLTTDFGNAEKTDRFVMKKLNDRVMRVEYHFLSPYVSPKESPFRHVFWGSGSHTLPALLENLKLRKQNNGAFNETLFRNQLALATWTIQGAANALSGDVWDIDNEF

The test has as its target T1, TfR protein (Acro Biosystems. Cat. No. CD1-H5243) (UniProt P02786 89-760).
T1 construct: Bought recombinant protein; also called TfR1; transferrin receptor
The experiment in a line: FOPPR (fiber optic particle plasmon resonance); peptide coupled to chip, TfR protein loaded at 0.5-1000 ng/mL. How it is done:
In this Example, the binding affinity of the transporter peptides disclosed herein to TfR was analyzed by fiber optic particle plasmon resonance (FOPPR). In this Example, different amino acid sites of the transporter peptide were further substituted with different amino acids of the same property to anaylze binding affinity of these variant peptides to the transferrin receptor.
To determine the affinity of the targeting peptide to TfR1, a fiber optic particle plasmon resonance (FOPPR) affinity study was performed according to the manufacturer's instruction. Briefly, 80 μL of tested peptide (10 μg/ml) dissolved in PBS buffer (pH 7.4) was pipetted into the EDC/NHS preactivated surface of standard chip NanoAu-MM (Taipei, Taiwan) for peptide conjugating to the carboxyl group of the surface sensor chip. TfR protein (Acro Biosystems. Cat. No. CD1-H5243, Newark, DE, USA) was loading to the chip with at the concentrations of 0.5 ng/mL, 1 ng/mL, 10 ng/mL, 100 ng/mL, 500 ng/mL, and 1000 ng/mL, respectively. Based on the light intensity change, the molecules interaction parameters of KD were calculated by the FOPPR system D200 (Id M3) (Taipei, Taiwan).
B1 came in with a Kd of 86.1 nM.

Molecule B2 yielded a Kd of 71 nM.

Take B3: the Kd is 3.23 nM.

B4 came in with a Kd of 36.6 nM.

In the case of B5, the Kd was determined as 10.3 nM.

The molecule B6 showed a Kd of 4.1 nM.

Consider B7, for which the Kd amounted to 70 nM.

Consider B8, for which the equilibrium dissociation constant (Kd) was found to be 16.6 nM.

B9 came in with a Kd of 4.45 nM.

For B10, the dissociation constant (Kd) was determined as 39.3 nM.

B11 displayed a Kd of 10.5 nM.

In turn, B12 registered a Kd of 8.07 nM.

Molecule B13 displayed a Kd of 3.62 nM.

In the case of B14, binding was characterised by a dissociation constant (Kd) of 52.3 nM.

The molecule B15 showed a Kd of 22.8 nM.

Turning to B16, the Kd was found to be 261 nM.

As to B17, the Kd was 4.77 nM.

As for B18, the affinity, expressed as Kd, was 0.45 nM.

For B19, the dissociation constant Kd was 59.3 nM.

For the molecule B20, binding was put at a Kd of 6.08 nM.

As for B21, the affinity, expressed as Kd, was 0.57 nM.

Turning to B22, the equilibrium dissociation constant (Kd) was 8.22 nM.

The molecule B23 came in with a Kd of 18.5 nM.

With B24, binding was put at a Kd of 0.27 nM.

B25 had a Kd of 0.43 nM.

B26 came in with a Kd of 26 nM.

For the molecule B27, the Kd was 1.3 nM.

B28 registered a Kd of 5.14 nM.

B29 came in with a Kd of 1.92 nM.
